Measurements: patent US20220143024A1, “METHODS OF USING IMIPRIDONES” (Board of Regents, The University of Texas System, priority 2019, published 2022)

Key:
Test in all cases: BioID-MS +ONC201
GLUD1 (human) = GLUD1 (human) (UniProt P00367)
LYRM4 (human) = LYRM4 (human) (UniProt Q9HD34)
MRPS6 (human) = MRPS6 (human) (UniProt P82932)
NIPSNAP1 (human) = NIPSNAP1 (human) (UniProt Q9BPW8)
MTPAP (human) = MTPAP (human) (UniProt Q9NVV4)
PDIA3 (human) = PDIA3 (human) (UniProt P30101)
WARS2 (human) = WARS2 (human) (UniProt Q9UGM6)
ECSIT (human) = ECSIT (human) (UniProt Q9BQ95)
MRPL54 (human) = MRPL54 (human) (UniProt Q6P161)
CDK5RAP1 (human) = CDK5RAP1 (human) (UniProt Q96SZ6)
QRSL1 (human) = QRSL1 (human) (UniProt Q9H0R6)
HADH (human) = HADH (human) (UniProt Q16836)
Chain of HADH (human) (Q16836 13-314 limits assumed): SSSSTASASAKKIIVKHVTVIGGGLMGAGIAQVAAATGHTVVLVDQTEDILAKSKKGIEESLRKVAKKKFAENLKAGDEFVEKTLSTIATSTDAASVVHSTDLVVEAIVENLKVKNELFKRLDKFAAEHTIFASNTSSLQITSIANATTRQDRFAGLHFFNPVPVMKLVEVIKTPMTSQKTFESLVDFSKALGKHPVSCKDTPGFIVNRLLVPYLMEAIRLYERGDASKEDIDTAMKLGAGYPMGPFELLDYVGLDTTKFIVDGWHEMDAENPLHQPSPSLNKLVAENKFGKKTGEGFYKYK

NDUFAF2 (human) = NDUFAF2 (human) (UniProt Q8N183)
NADK2 (human) = NADK2 (human) (UniProt Q4G0N4)
MPST (human) = MPST (human) (UniProt P25325)
HIBCH (human) = HIBCH (human) (UniProt Q6NVY1)
CARS2 (human) = CARS2 (human) (UniProt Q9HA77)
Chain of CARS2 (human) (Q9HA77 whole entry): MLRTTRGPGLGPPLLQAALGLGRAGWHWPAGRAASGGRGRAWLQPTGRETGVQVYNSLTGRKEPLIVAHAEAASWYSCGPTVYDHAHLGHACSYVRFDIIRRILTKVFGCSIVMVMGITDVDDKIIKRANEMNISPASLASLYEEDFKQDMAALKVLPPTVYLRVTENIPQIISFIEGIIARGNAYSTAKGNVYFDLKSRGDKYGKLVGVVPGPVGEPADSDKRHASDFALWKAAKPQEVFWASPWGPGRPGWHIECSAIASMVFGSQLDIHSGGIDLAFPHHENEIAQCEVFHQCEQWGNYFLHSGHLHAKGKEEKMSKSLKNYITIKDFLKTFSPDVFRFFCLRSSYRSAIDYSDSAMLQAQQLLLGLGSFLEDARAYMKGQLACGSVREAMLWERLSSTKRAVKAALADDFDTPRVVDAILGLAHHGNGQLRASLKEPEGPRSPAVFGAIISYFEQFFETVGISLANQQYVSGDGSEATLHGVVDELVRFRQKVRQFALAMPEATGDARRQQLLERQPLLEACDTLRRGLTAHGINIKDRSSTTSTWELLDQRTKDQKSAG

HSPE1 (human) = HSPE1 (human) (UniProt P61604)
Chain of HSPE1 (human) (P61604 2-102 limits assumed): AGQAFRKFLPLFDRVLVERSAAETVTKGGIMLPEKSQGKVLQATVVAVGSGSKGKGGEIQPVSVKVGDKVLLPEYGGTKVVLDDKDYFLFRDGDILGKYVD

ETFB (human) = ETFB (human) (UniProt P38117)
FASTKD5 (human) = FASTKD5 (human) (UniProt Q7L8L6)
MRPL48 (human) = MRPL48 (human) (UniProt Q96GC5)
CLYBL (human) = CLYBL (human) (UniProt Q8N0X4)
COQ8A (human) = COQ8A (human) (UniProt Q8NI60)
NDUFV2 (human) = NDUFV2 (human) (UniProt P19404)
T1MM44 (human) = T1MM44 (human) (UniProt O43615)
NDUFAF7 (human) = NDUFAF7 (human) (UniProt Q7L592)
NDUFA7 (human) = NDUFA7 (human) (UniProt O95182)
Chain of NDUFA7 (human) (O95182 2-113 limits assumed): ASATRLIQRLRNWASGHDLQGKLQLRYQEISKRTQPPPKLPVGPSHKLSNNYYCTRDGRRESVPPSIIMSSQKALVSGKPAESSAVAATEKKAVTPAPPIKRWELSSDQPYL

PAM16 (human) = PAM16 (human) (UniProt Q9Y3D7)
Chain of PAM16 (human) (Q9Y3D7 whole entry): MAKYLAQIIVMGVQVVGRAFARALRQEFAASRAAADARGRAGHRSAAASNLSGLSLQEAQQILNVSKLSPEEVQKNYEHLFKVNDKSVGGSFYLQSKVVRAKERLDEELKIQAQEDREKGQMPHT

FECH (human) = FECH (human) (UniProt P22830)
HINT2 (human) = HINT2 (human) (UniProt Q9BX68)
TFAM (human) = TFAM (human) (UniProt Q00059)
COX4I1 (human) = COX4I1 (human) (UniProt P13073)
Chain of COX4I1 (human) (P13073 23-169 limits assumed): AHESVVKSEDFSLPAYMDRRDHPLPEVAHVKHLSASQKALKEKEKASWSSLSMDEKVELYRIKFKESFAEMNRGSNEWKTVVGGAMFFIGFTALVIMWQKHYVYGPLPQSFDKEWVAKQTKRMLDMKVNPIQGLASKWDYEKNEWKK

RTN4IP1 (human) = RTN4IP1 (human) (UniProt Q8WWV3)
MRPL44 (human) = MRPL44 (human) (UniProt Q9H9J2)
ACO2 (human) = ACO2 (human) (UniProt Q99798)
Chain of ACO2 (human) (Q99798 28-780 limits assumed): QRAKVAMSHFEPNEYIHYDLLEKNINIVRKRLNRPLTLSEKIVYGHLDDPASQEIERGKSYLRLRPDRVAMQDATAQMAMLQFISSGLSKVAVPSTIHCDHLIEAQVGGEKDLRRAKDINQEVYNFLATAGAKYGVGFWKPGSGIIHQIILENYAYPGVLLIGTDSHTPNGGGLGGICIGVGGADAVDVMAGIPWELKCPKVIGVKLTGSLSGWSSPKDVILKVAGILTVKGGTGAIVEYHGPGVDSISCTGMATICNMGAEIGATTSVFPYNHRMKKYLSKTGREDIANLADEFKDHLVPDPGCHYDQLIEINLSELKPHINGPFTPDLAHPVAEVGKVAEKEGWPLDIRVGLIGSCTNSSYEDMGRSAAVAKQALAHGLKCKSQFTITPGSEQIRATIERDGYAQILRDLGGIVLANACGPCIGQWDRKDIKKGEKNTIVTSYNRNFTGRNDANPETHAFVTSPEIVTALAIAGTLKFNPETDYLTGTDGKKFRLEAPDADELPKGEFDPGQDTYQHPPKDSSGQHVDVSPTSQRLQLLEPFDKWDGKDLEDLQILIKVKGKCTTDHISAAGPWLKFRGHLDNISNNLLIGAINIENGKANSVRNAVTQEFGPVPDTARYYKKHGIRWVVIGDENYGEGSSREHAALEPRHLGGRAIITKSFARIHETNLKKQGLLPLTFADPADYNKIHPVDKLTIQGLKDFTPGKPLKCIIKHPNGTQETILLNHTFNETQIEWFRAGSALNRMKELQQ

MRPS7 (human) = MRPS7 (human) (UniProt Q9Y2R9)
MMAB (human) = MMAB (human) (UniProt Q96EY8)
ALDH4A1 (human) = ALDH4A1 (human) (UniProt P30038)
GATB (human) = GATB (human) (UniProt O75879)
IBA57 (human) = IBA57 (human) (UniProt Q5T440)
HARS2 (human) = HARS2 (human) (UniProt P49590)
IARS2 (human) = IARS2 (human) (UniProt Q9NSE4)
Chain of IARS2 (human) (Q9NSE4 49-1012 limits assumed): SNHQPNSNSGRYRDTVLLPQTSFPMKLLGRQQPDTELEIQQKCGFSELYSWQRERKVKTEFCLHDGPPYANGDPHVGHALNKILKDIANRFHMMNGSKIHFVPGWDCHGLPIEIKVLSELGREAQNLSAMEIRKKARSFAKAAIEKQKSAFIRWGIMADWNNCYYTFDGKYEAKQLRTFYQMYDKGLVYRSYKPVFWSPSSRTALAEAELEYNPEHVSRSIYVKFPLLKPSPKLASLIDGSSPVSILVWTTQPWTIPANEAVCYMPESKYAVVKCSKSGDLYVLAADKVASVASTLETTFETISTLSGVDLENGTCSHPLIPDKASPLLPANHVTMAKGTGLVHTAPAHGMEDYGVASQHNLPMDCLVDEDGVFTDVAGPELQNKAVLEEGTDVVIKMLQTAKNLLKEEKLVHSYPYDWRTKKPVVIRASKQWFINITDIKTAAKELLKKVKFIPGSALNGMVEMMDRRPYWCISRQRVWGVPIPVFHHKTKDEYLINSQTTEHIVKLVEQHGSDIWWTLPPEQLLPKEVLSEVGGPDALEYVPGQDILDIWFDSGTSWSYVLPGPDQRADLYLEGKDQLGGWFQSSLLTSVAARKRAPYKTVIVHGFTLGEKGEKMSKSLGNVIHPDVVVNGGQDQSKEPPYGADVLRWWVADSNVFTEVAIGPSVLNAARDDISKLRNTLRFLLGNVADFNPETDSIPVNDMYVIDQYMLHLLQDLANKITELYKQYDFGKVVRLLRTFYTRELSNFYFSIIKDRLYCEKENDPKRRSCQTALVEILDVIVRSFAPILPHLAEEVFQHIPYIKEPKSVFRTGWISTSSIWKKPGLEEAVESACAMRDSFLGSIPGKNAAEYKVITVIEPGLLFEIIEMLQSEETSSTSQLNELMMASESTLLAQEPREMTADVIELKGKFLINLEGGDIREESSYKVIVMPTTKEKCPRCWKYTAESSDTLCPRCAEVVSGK

MRPL45 (human) = MRPL45 (human) (UniProt Q9BRJ2)
BCKDHB (human) = BCKDHB (human) (UniProt P21953)
Chain of BCKDHB (human) (P21953 51-392 limits assumed): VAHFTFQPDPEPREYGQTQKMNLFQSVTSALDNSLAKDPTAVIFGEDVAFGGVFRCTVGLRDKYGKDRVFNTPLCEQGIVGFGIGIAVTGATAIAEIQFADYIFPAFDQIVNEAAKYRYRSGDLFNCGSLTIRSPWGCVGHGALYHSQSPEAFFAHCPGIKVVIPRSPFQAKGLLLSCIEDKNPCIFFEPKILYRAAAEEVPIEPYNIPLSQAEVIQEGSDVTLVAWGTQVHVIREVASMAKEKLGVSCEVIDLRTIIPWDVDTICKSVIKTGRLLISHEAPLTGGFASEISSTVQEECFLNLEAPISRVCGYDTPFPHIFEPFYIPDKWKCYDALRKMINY

THEM4 (human) = THEM4 (human) (UniProt Q5T1C6)
Chain of THEM4 (human) (Q5T1C6 37-240 limits assumed): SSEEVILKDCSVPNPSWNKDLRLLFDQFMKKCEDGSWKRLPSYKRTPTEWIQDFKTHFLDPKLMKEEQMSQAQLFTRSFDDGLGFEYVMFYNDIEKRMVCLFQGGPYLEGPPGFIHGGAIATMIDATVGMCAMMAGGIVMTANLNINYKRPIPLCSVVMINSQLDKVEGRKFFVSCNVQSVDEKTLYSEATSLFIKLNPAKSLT

FASTKD2 (human) = FASTKD2 (human) (UniProt Q9NYY8)
Chain of FASTKD2 (human) (Q9NYY8 whole entry): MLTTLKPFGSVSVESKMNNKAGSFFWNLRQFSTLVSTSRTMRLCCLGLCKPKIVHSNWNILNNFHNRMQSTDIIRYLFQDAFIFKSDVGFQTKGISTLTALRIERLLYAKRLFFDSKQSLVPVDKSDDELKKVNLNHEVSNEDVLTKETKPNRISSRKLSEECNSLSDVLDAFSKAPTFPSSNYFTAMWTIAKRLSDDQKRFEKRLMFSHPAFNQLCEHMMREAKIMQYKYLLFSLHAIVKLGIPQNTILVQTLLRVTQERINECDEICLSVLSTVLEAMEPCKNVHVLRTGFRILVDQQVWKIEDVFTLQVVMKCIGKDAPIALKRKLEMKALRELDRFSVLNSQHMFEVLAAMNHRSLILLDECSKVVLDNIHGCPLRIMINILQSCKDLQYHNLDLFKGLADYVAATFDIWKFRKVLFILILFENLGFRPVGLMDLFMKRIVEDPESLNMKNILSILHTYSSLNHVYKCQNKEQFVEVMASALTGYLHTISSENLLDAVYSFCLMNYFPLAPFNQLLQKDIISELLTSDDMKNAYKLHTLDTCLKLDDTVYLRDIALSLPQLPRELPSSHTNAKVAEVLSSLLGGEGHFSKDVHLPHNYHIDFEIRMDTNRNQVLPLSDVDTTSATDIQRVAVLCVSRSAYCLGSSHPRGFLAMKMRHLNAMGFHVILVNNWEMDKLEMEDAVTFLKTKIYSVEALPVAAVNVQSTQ

MRPS11 (human) = MRPS11 (human) (UniProt P82912)
MRPL21 (human) = MRPL21 (human) (UniProt Q7Z2W9)
SDHA (human) = SDHA (human) (UniProt P31040)
Chain of SDHA (human) (P31040 43-664 limits assumed): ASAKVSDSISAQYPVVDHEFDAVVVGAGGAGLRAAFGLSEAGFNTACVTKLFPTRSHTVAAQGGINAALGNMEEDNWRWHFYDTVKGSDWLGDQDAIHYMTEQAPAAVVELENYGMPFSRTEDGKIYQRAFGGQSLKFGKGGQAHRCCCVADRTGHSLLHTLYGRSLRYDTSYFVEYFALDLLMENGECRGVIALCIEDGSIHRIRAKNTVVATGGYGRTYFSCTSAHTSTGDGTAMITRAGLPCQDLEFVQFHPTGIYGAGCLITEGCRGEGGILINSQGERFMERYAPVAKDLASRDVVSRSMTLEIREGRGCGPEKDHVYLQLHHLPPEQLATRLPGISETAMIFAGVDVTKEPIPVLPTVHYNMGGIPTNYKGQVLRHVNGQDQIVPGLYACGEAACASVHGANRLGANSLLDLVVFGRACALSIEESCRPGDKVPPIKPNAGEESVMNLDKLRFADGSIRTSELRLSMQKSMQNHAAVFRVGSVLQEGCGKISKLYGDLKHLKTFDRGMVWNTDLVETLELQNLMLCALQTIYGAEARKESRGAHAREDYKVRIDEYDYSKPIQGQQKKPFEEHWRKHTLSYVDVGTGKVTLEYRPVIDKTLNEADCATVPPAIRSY

SUCLG2 (human) = SUCLG2 (human) (UniProt Q96I99)
MRPL55 (human) = MRPL55 (human) (UniProt Q7Z7F7)

- Log2 Fold change (vs control) (GLUD1 (human)): -1.63 log2
- Log2 Fold change (vs control) (LYRM4 (human)): 0 log2
- Log2 Fold change (vs control) (MRPS6 (human)): -4.52 log2
- Log2 Fold change (vs control) (NIPSNAP1 (human)): -1.19 log2
- Log2 Fold change (vs control) (MTPAP (human)): -0.1 log2
- Log2 Fold change (vs control) (PDIA3 (human)): 0.03 log2
- Log2 Fold change (vs control) (WARS2 (human)): -1.27 log2
- Log2 Fold change (vs control) (ECSIT (human)): -5.36 log2
- Log2 Fold change (vs control) (MRPL54 (human)): -4 log2
- Log2 Fold change (vs control) (CDK5RAP1 (human)): -4.17 log2
- Log2 Fold change (vs control) (QRSL1 (human)): -2.9 log2
- Log2 Fold change (vs control) (HADH (human)): -1.3 log2
- Log2 Fold change (vs control) (NDUFAF2 (human)): -7.94 log2
- Log2 Fold change (vs control) (NADK2 (human)): -4.24 log2
- Log2 Fold change (vs control) (MPST (human)): -4.46 log2
- Log2 Fold change (vs control) (HIBCH (human)): -1.55 log2
- Log2 Fold change (vs control) (CARS2 (human)): -0.21 log2
- Log2 Fold change (vs control) (HSPE1 (human)): -0.36 log2
- Log2 Fold change (vs control) (ETFB (human)): -1.35 log2
- Log2 Fold change (vs control) (FASTKD5 (human)): -4.91 log2
- Log2 Fold change (vs control) (MRPL48 (human)): -4.17 log2
- Log2 Fold change (vs control) (CLYBL (human)): -1.63 log2
- Log2 Fold change (vs control) (COQ8A (human)): -4.74 log2
- Log2 Fold change (vs control) (NDUFV2 (human)): -5.96 log2
- Log2 Fold change (vs control) (T1MM44 (human)): -0.52 log2
- Log2 Fold change (vs control) (NDUFAF7 (human)): -1.89 log2
- Log2 Fold change (vs control) (NDUFA7 (human)): -3.81 log2
- Log2 Fold change (vs control) (PAM16 (human)): -5.91 log2
- Log2 Fold change (vs control) (FECH (human)): -1.56 log2
- Log2 Fold change (vs control) (HINT2 (human)): -1.17 log2
- Log2 Fold change (vs control) (TFAM (human)): -1.61 log2
- Log2 Fold change (vs control) (COX4I1 (human)): -2.74 log2
- Log2 Fold change (vs control) (RTN4IP1 (human)): -1.5 log2
- Log2 Fold change (vs control) (MRPL44 (human)): -5.04 log2
- Log2 Fold change (vs control) (ACO2 (human)): -5.46 log2
- Log2 Fold change (vs control) (MRPS7 (human)): -2.77 log2
- Log2 Fold change (vs control) (MMAB (human)): -0.37 log2
- Log2 Fold change (vs control) (ALDH4A1 (human)): -2.21 log2
- Log2 Fold change (vs control) (GATB (human)): -1.84 log2
- Log2 Fold change (vs control) (IBA57 (human)): -1.05 log2
- Log2 Fold change (vs control) (HARS2 (human)): -1.3 log2
- Log2 Fold change (vs control) (IARS2 (human)): -2.38 log2
- Log2 Fold change (vs control) (MRPL45 (human)): -6.44 log2
- Log2 Fold change (vs control) (BCKDHB (human)): -4.91 log2
- Log2 Fold change (vs control) (THEM4 (human)): -0.88 log2
- Log2 Fold change (vs control) (FASTKD2 (human)): -0.62 log2
- Log2 Fold change (vs control) (MRPS11 (human)): -4.25 log2
- Log2 Fold change (vs control) (MRPL21 (human)): -4.52 log2
- Log2 Fold change (vs control) (SDHA (human)): -0.94 log2
- Log2 Fold change (vs control) (SUCLG2 (human)): -3.08 log2
- Log2 Fold change (vs control) (MRPL55 (human)): -5.25 log2
Substance: FlagBirA-ClpP (WT) (from UniProt P06709 1-321; Q16740 57-277) (enzyme)
